Experimental findings from PMC5489123 (Journal of molecular biology, 2010) are described below.

Ends that are not written are not given here. * marks the point of attachment. Dansyl = CN(C)c1cccc2c(S(=O)(=O)*)cccc12

Assay [1] concerns the target T1, Tiam1 PDZ domain (Homo sapiens, UniProt Q13009). Put plainly: Fluorescence anisotropy binding assay of dansylated peptides. In general terms: Fluorescence polarisation rises when a labelled molecule tumbles more slowly, as on binding a larger partner.
Assay [2] addresses T1, Tiam1 PDZ domain. Kind of assay: NMR chemical shift titration of N-acetylated peptides. The format is binding. The note with it: Kd (Model)/Kd (peptide); both Kd by NMR titration.
In assay [3] the target is T2, Tiam1 PDZ domain (residues 841-930) (human, UniProt Q13009 841-930). Kind of assay: fluorescence polarisation.
For assay [4], the target named is T2, Tiam1 PDZ domain (residues 841-930). Kind of assay: fluorescence polarisation. The source holds these as a separate data set.
The target is the same in assay [5]. Put plainly: NMR titration.

T2 sequence (Q13009 841-930): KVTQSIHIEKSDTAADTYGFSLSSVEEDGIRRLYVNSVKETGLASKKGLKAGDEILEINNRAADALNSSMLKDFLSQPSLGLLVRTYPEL
T1 sequence (Q13009 841-930): as above

Regarding Ac-NKDKEYYV [Neurexin1], at Tiam1 PDZ domain [1], the Kd (commonly the concentration at which binding is half-saturated) was greater than 100 µM. Also, at Tiam1 PDZ domain [2], the “Fold versus Model” value was 0.05. On to NKDKEYYV-OH (not fully specified (N-terminus)) [Neurexin-1 C-terminal peptide (residues 1470-1477), N-terminally dansylated], for which the Kd in assay [3] was greater than 100 µM. For Dansyl-SSRKEYYA [Model Tiam1-binding peptide, N-terminally dansylated], the Kd in assay [3] is greater than 100 µM. Molecule Dansyl-ENQKEYFF [Caspr4 C-terminal peptide (residues 1301-1308), N-terminally dansylated (dan-ENQKEYFF)] yielded a Kd in assay [4] of 16.8 ± 5.4 µM. With Dansyl-TKQEEFYF [Syndecan1(A→F) peptide, dansylated (dan-TKQEEFYF)], binding in assay [4] was characterised by a dissociation constant (Kd) of 55.7 ± 3.6 µM.

On to Ac-SSRKEYYA [Model Tiam1-binding peptide, N-terminally acetylated (Ac-SSRKEYYA)], for which the Kd in assay [5] came to 112 ± 15 µM. Same read-out and setting: for Ac-NKDKEYYV [Neurexin-1 C-terminal peptide (residues 1470-1477), N-terminally acetylated (Ac-NKDKEYYV)] the value was 2400 ± 250 µM. In assay [4], Dansyl-TKQEEFYA [Syndecan1 C-terminal peptide (residues 303-310), N-terminally dansylated (dan-TKQEEFYA)] yielded a Kd of 26.9 ± 0.9 µM. In assay [4], Dansyl-ENQKEYFA [Caspr4(F→A) peptide, dansylated (dan-ENQKEYFA)] displayed a Kd of 64.8 ± 5.9 µM.
